Measurements as given in US20160272707A1 (COMPUGEN, published 2016).
Where two headings read alike, the source gives them in different places.

T1: mouse VSTM5 (SEQ ID NO:11) expressed on HEK-293T cells (mouse, UniProt Q9D806 28-199)
T1 construct: also called mouse VSTM5 untagged
T1 sequence: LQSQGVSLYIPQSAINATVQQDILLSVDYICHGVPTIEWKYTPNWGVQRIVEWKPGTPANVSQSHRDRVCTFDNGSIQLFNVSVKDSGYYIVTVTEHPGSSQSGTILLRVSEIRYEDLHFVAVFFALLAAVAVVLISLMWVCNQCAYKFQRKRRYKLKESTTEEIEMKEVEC

T2: human VSTM5 (SEQ ID NO:132) expressed on HEK-293T cells (human, UniProt A8MXK1 29-200)
T2 construct: For the western blot, whole cell extracts were used; no signal peptide limits are stated; also called human VSTM5 untagged; HEK293T recombinant cells expressing human VSTM5
T2 sequence: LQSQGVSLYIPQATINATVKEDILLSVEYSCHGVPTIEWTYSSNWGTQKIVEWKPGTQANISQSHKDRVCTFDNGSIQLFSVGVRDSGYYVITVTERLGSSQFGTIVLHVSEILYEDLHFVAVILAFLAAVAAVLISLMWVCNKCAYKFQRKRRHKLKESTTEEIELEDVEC

T3: VSTM5 on human peripheral blood leukocytes (Homo sapiens, UniProt A8MXK1)
T3 construct: full-length, cell surface, endogenous; also called endogenous human VSTM5
T3 sequence (membrane protein, looked up): T2 sequence

T4: VSTM5 monomer (UniProt A8MXK1 29-147, limits assumed)
T4 construct: also called monomeric VSTM5 antigen; VSTM5 antigen
T4 sequence (looked up): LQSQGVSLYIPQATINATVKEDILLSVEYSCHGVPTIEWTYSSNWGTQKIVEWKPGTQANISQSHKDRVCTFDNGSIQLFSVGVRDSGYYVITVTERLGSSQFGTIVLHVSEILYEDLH

B1: 52-01.A07 (antibody, V domains shown)
VH: EVQLVESGGGLVQPGRSLRLSCAASGFTFSSYAMHWVRQAPGKGLEWVAVISYDGSNKYYADSVKGRFTISRDNSKNTLYLQMNSLRAEDTAVYYCASKRELHSFDYWGQGTLVTVSS
VL: DVVMTQSPLSLPVTPGEPASISCRSSQSLLQSNGHNYLNWYLQKPGQSPQVLIYLASNRASGVPDRFSGSGSGTDFTLKISRVEAEDVGIYYCMQGLQIPLTFGGGTKVEIKR
B2: 53-01.B11 (antibody, V domains shown)
VH: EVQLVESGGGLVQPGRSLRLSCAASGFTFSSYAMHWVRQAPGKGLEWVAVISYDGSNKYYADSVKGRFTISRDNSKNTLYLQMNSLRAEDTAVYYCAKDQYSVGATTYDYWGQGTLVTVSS
VL: QPVLTQSSSASASLGASVKLTCSLSSGHSSYAIAWHQQQPEKGPRYLMKLNSDGSHSKGDGIPDRFSGSSSGAERYLTISSLQSEDEADYYCQTWGSGIQVFGGGTKLTVLG
notes: also called S53-01-B11; S53-01.B11
B3: 47-01.D05 (antibody, V domains shown)
VH: QITLKESGPTLVKPTQTLTLTCTFSGFSLSTSGVGVGWIRQPPGKALEWLALIYWDDDKRYSPSLKSRLTITKDTSKNQVVLTMTNMDPVDTATYYCAHSGSVGYALYFDYWGQGTLVTVSS
VL: QAVLTQPPSSSASPGESARLTCTLPSDINVRYYNIYWYQQKPGSPPRYLLYYQSDSHKGRGSGVPSRFSGSKDTSANTGILLISGLQSEDEADYYCMIWASNGSGVLGGGTQLTVLG
B4: 50-01.A04 (antibody, V domains shown)
VH: QVQLVQSGAEVKKPGESLKISCKGSGYDFNNYWIGWVRQTPEKGLEWMGIVYPGDHPGDYHIRYGPSFQGQVTISADRSITTAYLQWRNLKASDTAMYYCARLGSSKDLDYWGQGTLVTVSS
VL: EIVLTQSPATLSLSPGERATLSCRASQSVSGHLDWYQQKPGQSPRLLIYDASNRATGIPARFSGSGSGTDFSLTISSLEPEDFAVYYCQHRSNWPWTFGQGTKVEIKR
B5: 50-01.F03 (antibody, V domains shown)
VH: EVQLVEIGGGLIQPGRSLRLSCAASGFTFSSYAMHWVRQAPGKGLEWVAVISYDGSKKYYADSVKGRFTISRDNSKNTVHLQMNSLRVEDTAVYYCALLSRPHYGLDVWGQGTTVTVSS
VL: QSVLTQPPSVSAAPGQKVTISCSGSRSNVGGNFLSWYQHVPGTPPQLLIYDNYKRPSEIPDRFSGSKSGTSATLDITGLQTGDEADYYCGTWDSSLSSWVFGGGTQLTVLG
B6: 50-01.D01 (antibody, V domains shown)
VH: QVQLVESGGGVVQPGRSRRLSCAASGFAFRNYGMHWVRQAPGKGLEWVAFISQNGGKKYYADSVTGRFTVSRDNSKNTLYLQINSLTTDDTAVFYCARSGSGSWGYSDFPGPFDHWGQGSLVTVSS
VL: EIVLTQSPGTLSLSPGERATLSCRASQNIFISFLAWYQQKPGQAPRLLLYGASNRATGIPDRFSGSGSGTDFTLTISRLEPEDFAVYYCQQYGSSPLTFGGGTKVEIKR
notes: also called 50-01.001

Legend:
[1] = molecular target: T1, mouse VSTM5 (SEQ ID NO:11) expressed on …; assay: FACS titration on 293-muVSTM5 cells, panel 'Ab binding vs. mouse VSTM5'
[2] = molecular target: T5, human VSTM5-EGFP (SEQ ID NO:133) expressed on HEK-293 cells (human); assay: FACS, IgG1 at 22 nM on 293-huVSTM5 (VSTM5-EGFP) cells; grade from ratio to 293-MT control cells (<50)
T5 construct: Full-length human VSTM5 fused at its C-terminus to EGFP; also called VSTM5_GFP

[3] = molecular target: T1, mouse VSTM5 (SEQ ID NO:11) expressed on …; assay: FACS, IgG1 at 22 nM on 293-muVSTM5 cells; grade from ratio to 293-MT control cells (850-2000)
[4] = molecular target: T5, human VSTM5-EGFP (SEQ ID NO:133) …; assay: FACS, IgG1 at 22 nM on 293-huVSTM5 (VSTM5-EGFP) cells; grade from ratio to 293-MT control cells (850-2000)
[5] = molecular target: T1, mouse VSTM5 (SEQ ID NO:11) expressed on …; assay: FACS titration of the human IgG1 on 293-muVSTM5 cells, panel 'Ab binding vs. mouse VSTM5'; y axis MFI (anti-Human A647)
[6] = molecular target: T5, human VSTM5-EGFP (SEQ ID NO:133) …; assay: FACS titration of the human IgG1 on 293-huVSTM5 cells, 293-MT control cells as open squares; y axis MFI (anti-Human A647)
[7] = molecular target: T6, VSTM5-ECD-Ig H:H (human VSTM5 ECD fused to human IgG1 Fc, SEQ ID NO:130) (human); assay: FACS of tosyl-activated beads coated with anti-CD3 and 0 to 320 ug/ml VSTM5-ECD-Ig, stained with Alexa 647 conjugated 53-01.B11
T6 construct: also called VSTM5-ECD-Ig fusion protein; VSTM5HH
Experimental: Tosyl activated beads (Invitrogen, Cat#14013) at 500×10⁶/ml were coated with anti-CD3 mAb and Fc fusion proteins in a two-step protocol: with 50 ug/ml human anti-CD3 clone UTCH1 (R&D systems, Cat# mab 100) in sodium phosphate buffer at 37° C. overnight, followed with 0-320 ug/ml of VSTM5-ECD-Ig fusion protein (human ECD of VSTM5 fused with Fc of human IgG1) for another overnight incubation at 37° C. In the second step, control human Fc was added together with Fc fusion protein so that the total amount of protein is 160 ug/ml (Bioxcell, Cat# BE0096) for the 0, 20, 40, 80 and 160 ug/ml coating condition (except for the 320 ug/ml coating condition).
The amount of anti-CD3 antibody bound to the beads was analyzed using goat anti-mouse 647 (Jackson ImmunoResearch, Cat#115-606-146).

[8] = molecular target: T2, human VSTM5 (SEQ ID NO:132) expressed …; assay: flow cytometry on HEK293T cells expressing untagged human VSTM5; antibody at 1 nM (0.15 ug/ml), PE goat anti-human secondary 1:200
Description: To verify the cell-surface expression of human VSTM5 in HEK293T recombinant cells (FIG. 8C), cells expressing the protein were stained with monoclonal VSTM5 antibody (S53-01-B11, described in Example 12 and 13 herein) and appropriate Isotype control followed by Goat a human PE conjugated Ab (Cat#
Non expressing cell line (HEK293T_pIRESpuro3) was stained under the same conditions and used for a negative control.

[9] = molecular target: T3, VSTM5 on human peripheral blood …; assay: FACS, AF647 conjugated antibody on red-cell-lysed human peripheral blood of 3 donors, Fc receptors blocked with human IgG, against Synagis AF647
Experimental: Human peripheral blood was collected from 3 healthy donors. Red blood cells were lysed with RBC Lysis Buffer (eBiosciences Cat#00-4333-57) according to the manufacturer's protocol. Cells were incubated with 400 ug/ml human IgG (Jackson Immunoresearch #009-000-003) for 20 min on ice to block Fc receptors and then stained with cocktails consisting of Synagis® AF647, and anti-VSTM5 antibodies disclosed in Example 12, i.e., anti-VSTM5 AF647 (clone 44-2.E06 or 53-01.B11), anti-CD11b PE (Biolegend Cat#301305), anti-CD45 PerCp Cy5.5 (Biolegend #304207), anti-CD14 FITC (Biolegend cat#352610), or anti-CD41 PE (Biolegend Cat#303705) for 30 min on ice. All AF647 antibodies were conjugated at Compugen using Alexa Fluor® 647 Antibody Labeling Kit (Life Technologies Cat# A-20186) according to the manufacturer's protocol. Cells were washed twice with FACS Buffer (1% BSA, 0.1% Sodium Azide, PBS) and acquired on Intellicyte FACS machine. Data was analyzed by FlowJo and cell subsets defined as below: Monocytes: CD14⁺CD11b⁺, Neutrophils: CD11b⁺CD14^low, Lymphocytes FSC^lowSSC^lo, Eosinophils SSC^hi, platelets: CD45⁻CD41⁺. Staining of anti-VSTM5 antibodies to these cells was compared to staining with Synagis.

VSTM5 monomer [10] = molecular target: T4, VSTM5 monomer; assay: SPR, VSTM5 monomer binding to the IgG
VSTM5 monomer [11] = molecular target: T4, VSTM5 monomer; assay: SPR, VSTM5 monomer binding to the IgG (equilibrium binding constant)
[12] = molecular target: T5, human VSTM5-EGFP (SEQ ID NO:133) …; assay: FACS, IgG1 at 22 nM on 293-huVSTM5 (VSTM5-EGFP) cells; grade from ratio to 293-MT control cells (400-850)
Experimental: Empty vector control cells and human VSTM5 EGFP suspension 293 cells were pelleted and stained in 50 μl of the indicated concentrations of anti-VSTM5 antibodies or isotype controls in FACS buffer at 4° C. for 60 mins. Cells were washed once in FACS buffer, re-suspended in 50 μl of 1:250 dilution of biotinylated anti-human IgG (Jackson cat#109-065-097) for 30 mins at 4° C. Cells were washed in FACS buffer, re-suspended in 50 μl of 1:100 dilution of SA-PE (Jackson cat#016-110-084) for 30 mins. Cells were washed twice and re-suspended in a final volume of 100 μl of FACS buffer. Samples were read on the Intellicyt HTFC. Data was analyzed by FCS Express (DeNovo, Calif., USA), exported to Excel (Microsoft, WA, USA) and plotted in GraphPad Prism® (GraphPad Software, Inc., CA, USA).

[13] = molecular target: T5, human VSTM5-EGFP (SEQ ID NO:133) …; assay: FACS titration of the human IgG1 on 293-huVSTM5 cells, 293-MT control cells as open squares; y axis MFI (anti-Human A647); remark: listed apart in the source
[14] = molecular target: T5, human VSTM5-EGFP (SEQ ID NO:133) …; assay: FACS, IgG1 at 22 nM on 293-huVSTM5 (VSTM5-EGFP) cells; grade from ratio to 293-MT control cells (50-400)

Binder	binding result [1]	EC50 (read off the curve) [6] [nM]	Kd (VSTM5 monomer [10]) [nM]	Kd (VSTM5 monomer [11]) [nM]	ratio of 293-huVSTM5 cell binding / 293-MT control cell binding (FACS) at 22 nM mAb [12] [ratio]	EC50 (read off the curve) [13] [nM]	also measured
B1	no binding						ratio of 293-huVSTM5 cell binding / 293-MT control cell binding (FACS) at 22 nM mAb [2]: < 50 ratio
B2		~3					ratio of 293-muVSTM5 cell binding / 293-MT control cell binding (FACS) at 22 nM mAb [3]: 850 to 2000 ratio; ratio of 293-huVSTM5 cell binding / 293-MT control cell binding (FACS) at 22 nM mAb [4]: 850 to 2000 ratio; EC50 (read off the curve) [5]: ~2 nM; binding result [7]: binds; binding result [8]: binds; binding result [9]: binds
B3	no binding		60.7	60.7	400 to 850	~2	
B4	no binding		52.8	52.8			ratio of 293-huVSTM5 cell binding / 293-MT control cell binding (FACS) at 22 nM mAb [14]: 50 to 400 ratio
B5	no binding				400 to 850	~0.7	
B6	no binding	~0.6			400 to 850		
